# Assay results from PMC9817130, “Structural insights into broadly neutralizing antibodies elicited by hybrid immunity against SARS-CoV-2” (Emerging Microbes & Infections, 2023).
# Target: T1, SARS-CoV-2 WT RBD protein (Sino Biological) (SARS-CoV-2 WT, UniProt P0DTC2)
# T1 construct: also called viral RBD; immobilized RBD
# Assay: SPR
# Conditions: both partners purified
binder,measurement,value
"LY-CoV1404 (Bebtelovimab) (antibody, V domains shown, also called class III LY-CoV1404) VH: QITLKESGPTLVKPTQTLTLTCTFSGFSLSISGVGVGWLRQPPGKALEWLALIYWDDDKRYSPSLKSRLTISKDTSKNQVVLKMTNIDPVDTATYYCAHHSISTIFDHWGQGTLVTVSS VL: QSALTQPASVSGSPGQSITISCTATSSDVGDYNYVSWYQQHPGKAPKLMIFEVSDRPSGISNRFSGSKSGNTASLTISGLQAEDEADYYCSSYTTSSAVFGGGTKLTVL",binding result,binds
